According to publication PMC10113190 (2023):

Target: Biotinylated CyRPA (residues 29 to 362) with a C-terminal Avitag (P. falciparum, UniProt Q8IFM8 29-362, biotin (on the Avitag))
Experiment: BLI

Binder | Kd
Rh5_(unproc), full-length PfRh5 (residues 26 to 526) (natural protein) ENAIKKTKNQENNLTLLPIKSTEEEKDDIKNGKDIKKEIDNDKENIKTNNAKDHSTYIKSYLNTNVNDGLKYLFIPSHNSFIKKYSVFNQINDGMLLNEKNDVKNNEDYKNVDYKNVNFLQYHFKELSNYNIANSIDILQEKEGHLDFVIIPHYTFLDYYKHLSYNSIYHKSSTYGKCIAVDAFIKKINEAYDKVKSKCNDIKNDLIATIKKLEHPYDINNKNDDSYRYDISEEIDDKSEETDDETEEVEDSIQDTDSNHAPSNKKKNDLMNRAFKKMMDEYNTKKKKLIKCIKNHENDFNKICMDMKNYGTNLFEQLSCYNNNFCNTNGIRYHYDEYIHKLILSVKSKNLNKDLSDMTNILQQSELLLTNLNKKMGSYIYIDTIKFIHKEMKHIFNRIEYHTKIINDKTKIIQDKIKLNIWRTFQKDELLKRILDMSNEYSLFITSDHLRQMLYNTFYSKEKHLNNIFHHLIYVLQMKFNDVPIKMEYFQTYKKNKPLTQ | 127 nM
Rh5_(proc), processed form of PfRh5 lacking the N-terminal domain (residues 145-526) (domain or fragment) LQYHFKELSNYNIANSIDILQEKEGHLDFVIIPHYTFLDYYKHLSYNSIYHKSSTYGKCIAVDAFIKKINEAYDKVKSKCNDIKNDLIATIKKLEHPYDINNKNDDSYRYDISEEIDDKSEETDDETEEVEDSIQDTDSNHAPSNKKKNDLMNRAFKKMMDEYNTKKKKLIKCIKNHENDFNKICMDMKNYGTNLFEQLSCYNNNFCNTNGIRYHYDEYIHKLILSVKSKNLNKDLSDMTNILQQSELLLTNLNKKMGSYIYIDTIKFIHKEMKHIFNRIEYHTKIINDKTKIIQDKIKLNIWRTFQKDELLKRILDMSNEYSLFITSDHLRQMLYNTFYSKEKHLNNIFHHLIYVLQMKFNDVPIKMEYFQTYKKNKPLTQ | 179 nM
